Reference: the supplement of paper PMC9732359
± gives the uncertainty stated by the source.

Experiment: protein stability index of a GFP-peptide fusion (yeast GPS) (PSI 1-4); higher = more stable; sorted into four equal gates, so the index is relative within each strain
Summary of the method: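 Peptides tiling yeast proteins in 17-residue segments were fused downstream of GFP, with Cherry expressed from the same plasmid. As a pooled library in yeast, mid-log cultures grown in leucine-free medium were sorted into four equal gates by GFP/Cherry fluorescence ratio. Gate plasmids were PCR-amplified and Illumina-sequenced, and barcodes linked reads to strains. Each peptide received a protein stability index equal to the sum of each gate's read frequency times its gate number.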

| Sequence | protein stability index (pdr5∆) | protein stability index (ubr1∆) | protein stability index (doa10∆) | protein stability index (san1∆) |
| --- | --- | --- | --- | --- |
| ARILGTRALQISMNAPV [RPO26] | 1.45 ± 0.24 | 1.39 ± 0.13 |  |  |
| GGSAKPSLKFKPKAVAR [RPC53] | 2.7 ± 0.081 | 2.92 ± 0.073 | 2.79 ± 0.11 | 2.44 ± 0.067 |
| SDLRVLSGSISERIVDC [FAS1] | 3.45 ± 0.15 | 3.26 ± 0.098 | 2.95 ± 0.14 | 3.41 ± 0.087 |
| KKMGVPYAIVKGKARLG [RPL8A] | 2.09 ± 0.16 |  | 1.87 ± 0.17 | 2.12 ± 0.17 |
| SNDIIDKPYLLRIVTHL [YDL116W/NUP84] | 1.99 ± 0.09 | 1.93 ± 0.076 | 1.93 ± 0.11 | 3.09 ± 0.15 |
| LSNCLANARDFGEWAGM [BRR2] | 2.41 ± 0.095 | 2.45 ± 0.07 | 2.35 ± 0.089 | 2.28 ± 0.17 |
| KTKKLNLSAFKIVYIAP [BRR2] | 2.1 ± 0.052 | 2.27 ± 0.052 | 2.13 ± 0.056 | 2.19 ± 0.069 |
| TATIINNESSDDMDIDE [PCI8] | 3.17 ± 0.07 | 3.31 ± 0.056 | 3.1 ± 0.097 | 3.02 ± 0.095 |
| ALIENKKAKLVLIANDV [RPL8A] | 2.51 ± 0.093 | 2.46 ± 0.12 | 2.76 ± 0.1 | 2.56 ± 0.12 |
| GAPGANARMPGMPNMPG [SRP54] | 3.2 ± 0.28 | 2.9 ± 0.11 | 3.15 ± 0.083 | 2.92 ± 0.12 |
| THSQTGTQQSNMYTSTQ [SIR4] | 3.16 ± 0.046 | 3.08 ± 0.055 | 3.03 ± 0.061 | 2.93 ± 0.051 |
| SNRLLMDVDQFDFLDDG [YJR042W/NUP85] | 1.37 ± 0.15 | 1.23 ± 0.099 | 1.49 ± 0.097 | 1.69 ± 0.27 |
| HEFFIANHDDQDDIDEM [SRP68] | 2.64 ± 0.061 | 3.23 ± 0.062 | 3.12 ± 0.056 | 3.24 ± 0.04 |
| KIELIKNNLLIPDLSIQ [RPN12] | 2.23 ± 0.042 | 2.06 ± 0.036 | 2.75 ± 0.055 | 2.66 ± 0.046 |
| ASGKEVEKVATAVLSTT [RPN2] | 3.47 ± 0.17 |  | 2.76 ± 0.14 |  |
| EHGLHAPAYAWSHNGPF [CYT1] | 3 ± 0.073 | 2.87 ± 0.054 | 2.83 ± 0.11 | 2.52 ± 0.087 |
| DMANEIILSIDEHHESF [RRP6] | 2.98 ± 0.093 | 2.9 ± 0.049 | 3.01 ± 0.068 | 2.95 ± 0.062 |
| GYYLSLGSGSLAAMAVL [PUP1] | 1.98 ± 0.29 |  |  |  |
| MSEVITITKRNGAFQNS [RRP4] | 2.31 ± 0.076 | 2.18 ± 0.059 | 2.33 ± 0.083 | 2.79 ± 0.067 |
| FNTQQGIKKHSLWRRTV [YDL116W/NUP84] | 2.76 ± 0.043 | 2.49 ± 0.031 | 2.6 ± 0.049 | 2.77 ± 0.048 |

| Sequence | protein stability index (pdr5∆) | protein stability index (ubr1∆) | protein stability index (doa10∆) | protein stability index (san1∆) |
| --- | --- | --- | --- | --- |
| GKYVIAGHVSGVITVHN [RPN14] | 2.48 ± 0.092 | 3.23 ± 0.038 | 1.55 ± 0.098 | 2.48 ± 0.1 |
| ITGEKLDTQLNDLRVSL [SMC1] | 2 ± 0.076 | 1.16 ± 0.032 | 1.3 ± 0.068 | 1.58 ± 0.18 |
| VLSTEEILNIFKHISVK [RPO21] | 3.44 ± 0.24 | 1.6 ± 0.17 | 2.68 ± 0.13 | 2.94 ± 0.12 |
| EILEHICYDVNDWQMLE [RPB2] | 3.02 ± 0.086 | 2.98 ± 0.081 | 2.84 ± 0.12 | 2.74 ± 0.08 |
| RYDSNSGGEREIQRTML [RPT2] | 3.62 ± 0.096 | 3.38 ± 0.1 | 3.43 ± 0.12 | 3.39 ± 0.12 |
| RKVVKPSSLNSDKIPYV [SRB4] | 3.23 ± 0.13 | 3.23 ± 0.12 | 2.74 ± 0.23 | 3.06 ± 0.18 |
| GASGVDDFQNFFDPKPF [SWI1] | 2.68 ± 0.064 | 3.11 ± 0.046 | 2.65 ± 0.065 | 2.92 ± 0.092 |
| LRQLLKERYTVEDELTE [RRI1] | 2.71 ± 0.15 | 3.51 ± 0.084 | 3.04 ± 0.097 | 3.33 ± 0.076 |
| KVEKVVKCKMSALQQIM [SNF2] | 3.05 ± 0.24 | 3.13 ± 0.09 | 2.86 ± 0.12 | 2.95 ± 0.14 |
| NVLIGGYDKKKNKPELY [PRE1] | 2.53 ± 0.27 | 2.74 ± 0.27 |  |  |
| SFTPSTVPNINFSGLNG [YOR098C/NUP1] | 2.68 ± 0.068 | 2.97 ± 0.05 | 2.59 ± 0.066 | 2.83 ± 0.056 |
| GFALNSDIVFIHQNAGR [BRR2] | 2.09 ± 0.09 | 2.02 ± 0.057 | 3.03 ± 0.12 | 1.78 ± 0.2 |
| LDPTDDEGHVLKLENLH [SIN4] | 3.16 ± 0.23 |  |  | 3.12 ± 0.13 |
| SVIVSQFCAFDSSSNTY [SIN4] | 2.26 ± 0.073 | 2.19 ± 0.074 | 2.48 ± 0.084 | 2.51 ± 0.12 |
| LNDEGEPIKVNVRVGQA [RPN1] | 3.03 ± 0.062 | 3.2 ± 0.063 | 3.13 ± 0.09 | 2.85 ± 0.065 |
| RKIEFPSLRDRRERRLI [RPT3] | 3.34 ± 0.086 | 3.32 ± 0.042 | 3.31 ± 0.052 | 2.68 ± 0.066 |
| DICLKLNLDSEQTVEYM [RPN3] | 3.28 ± 0.2 | 3.07 ± 0.092 | 3.37 ± 0.23 | 2.97 ± 0.24 |
| AQQLRNQQQQQQQQQQQ [GAL11] | 2.92 ± 0.11 | 3.04 ± 0.065 | 2.98 ± 0.095 | 2.92 ± 0.094 |
| GELKRGNESVKPQFENH [MED11] | 3.21 ± 0.089 | 2.97 ± 0.16 | 3.34 ± 0.18 | 2.98 ± 0.11 |
| PLSGLLFKNYRFNFISK [YMR129W/POM152] | 2.17 ± 0.07 | 2.25 ± 0.094 | 2.85 ± 0.11 | 1.73 ± 0.098 |
